# Measured values published in paper PMC9482650, “Quantitative fragmentomics allow affinity mapping of interactomes” (Nature Communications, 2022).
# T1: LIN7A, O14910
# T1 sequence (O14910 103-200, limits assumed, looked up): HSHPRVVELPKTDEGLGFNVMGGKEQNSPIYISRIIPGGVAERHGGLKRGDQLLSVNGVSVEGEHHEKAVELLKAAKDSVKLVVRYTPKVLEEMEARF
# T2: DLG3_1, Q92796
# T2 sequence (Q92796 125-227, limits assumed, looked up): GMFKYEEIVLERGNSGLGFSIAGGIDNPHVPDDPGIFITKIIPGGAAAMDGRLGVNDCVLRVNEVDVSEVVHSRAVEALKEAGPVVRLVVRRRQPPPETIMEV
# T3: DFNB31_3, Q9P202
# T3 sequence (Q9P202 811-907, limits assumed, looked up): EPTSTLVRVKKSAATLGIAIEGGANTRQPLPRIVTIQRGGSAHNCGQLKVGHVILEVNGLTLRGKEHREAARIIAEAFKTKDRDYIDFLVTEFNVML
# T4: NHERF3_4, Q5T2W1
# T4 sequence (Q5T2W1 373-468, limits assumed, looked up): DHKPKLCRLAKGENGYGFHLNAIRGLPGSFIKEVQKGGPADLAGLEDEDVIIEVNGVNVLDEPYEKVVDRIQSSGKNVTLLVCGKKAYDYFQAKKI
# T5: NHERF3_1, Q5T2W1
# T5 sequence (Q5T2W1 4-100, limits assumed, looked up): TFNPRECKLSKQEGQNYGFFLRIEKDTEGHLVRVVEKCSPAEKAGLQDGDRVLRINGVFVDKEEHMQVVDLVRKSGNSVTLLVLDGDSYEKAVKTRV
# T6: PDZD2_2, O15018
# T6 sequence (O15018 329-429, limits assumed, looked up): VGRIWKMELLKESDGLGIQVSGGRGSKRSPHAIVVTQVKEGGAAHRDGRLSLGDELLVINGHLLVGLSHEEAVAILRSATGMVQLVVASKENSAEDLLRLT
# T7: SNTA1, Q13424
# T7 sequence (Q13424 82-180, limits assumed, looked up): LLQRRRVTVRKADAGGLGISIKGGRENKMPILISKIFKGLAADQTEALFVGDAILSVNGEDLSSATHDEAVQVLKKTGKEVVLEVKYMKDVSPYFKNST
# T8: MPP6, Q9NZW5
# T8 sequence (Q9NZW5 125-219, limits assumed, looked up): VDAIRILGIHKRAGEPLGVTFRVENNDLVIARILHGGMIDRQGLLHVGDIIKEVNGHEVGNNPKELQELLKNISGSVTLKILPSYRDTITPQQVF
# T9: PCLO, Q9Y6V0
# T9 sequence (Q9Y6V0 4491-4600, limits assumed, looked up): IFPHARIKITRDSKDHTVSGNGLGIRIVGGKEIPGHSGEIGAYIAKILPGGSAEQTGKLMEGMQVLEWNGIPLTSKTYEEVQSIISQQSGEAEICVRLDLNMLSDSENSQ
# T10: SIPA1L2, Q9P2F8
# T10 sequence (Q9P2F8 945-1036, limits assumed, looked up): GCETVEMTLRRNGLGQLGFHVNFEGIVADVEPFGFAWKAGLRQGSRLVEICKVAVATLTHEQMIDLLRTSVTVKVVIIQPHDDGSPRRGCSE
# T11: MPDZ_5, O75970
# T11 sequence (O75970 695-796, limits assumed, looked up): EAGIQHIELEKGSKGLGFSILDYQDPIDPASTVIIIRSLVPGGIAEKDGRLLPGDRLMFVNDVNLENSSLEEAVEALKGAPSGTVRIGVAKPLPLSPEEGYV
# B1: GRID2, O43424 (peptide)
# chain: GNDPDRGTSI
# B2: KIT, P10721 (peptide)
# chain: SQPLLVHDDV
# B3: JAM1, Q9Y624 (peptide)
# chain: EFKQTSSFLV
# Molecular target: T1, LIN7A, O14910
# Experiment: holdup assay
# Set-up: key: below the threshold = too weak to quantify, mostly under pKd 3.1 to 4
# Conditions: plain residues with an end cap or a label only (N-terminal biotin on a linker: ado-ado)
row,Binder,pKd
1,B1,below the threshold
2,B2,below the threshold
3,B3,below the threshold

# Molecular target: T2, DLG3_1, Q92796
# Experiment: holdup assay
# Set-up: key: below the threshold = too weak to quantify, mostly under pKd 3.1 to 4
# Conditions: plain residues with an end cap or a label only (N-terminal biotin on a linker: ado-ado)
row,Binder,pKd
1,B1,below the threshold
2,B2,below the threshold
3,B3,below the threshold

# Molecular target: GRIP2_5, Q9C0E4
# Sequence (Q9C0E4 544-642): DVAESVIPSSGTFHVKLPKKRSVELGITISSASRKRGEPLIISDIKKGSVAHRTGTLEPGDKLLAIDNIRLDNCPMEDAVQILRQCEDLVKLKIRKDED
# Experiment: holdup assay
# Set-up: key: below the threshold = too weak to quantify, mostly under pKd 3.1 to 4
# Conditions: plain residues with an end cap or a label only (N-terminal biotin on a linker: ado-ado)
row,Binder,pKd
1,B1,below the threshold
2,B2,below the threshold
3,B3,below the threshold

# Molecular target: CASK, O14936
# Sequence (O14936 487-570): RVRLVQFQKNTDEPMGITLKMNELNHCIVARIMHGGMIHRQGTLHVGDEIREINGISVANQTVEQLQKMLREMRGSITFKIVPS
# Experiment: holdup assay
# Set-up: key: below the threshold = too weak to quantify, mostly under pKd 3.1 to 4
# Conditions: plain residues with an end cap or a label only (N-terminal biotin on a linker: ado-ado)
row,Binder,pKd
1,B1,below the threshold
2,B2,below the threshold
3,B3,below the threshold

# Molecular target: IL16_3, Q14005
# Sequence (Q14005 1107-1207): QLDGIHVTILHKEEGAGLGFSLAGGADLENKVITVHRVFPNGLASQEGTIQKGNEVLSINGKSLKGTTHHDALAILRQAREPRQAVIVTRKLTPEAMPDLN
# Experiment: holdup assay
# Set-up: key: below the threshold = too weak to quantify, mostly under pKd 3.1 to 4
# Conditions: plain residues with an end cap or a label only (N-terminal biotin on a linker: ado-ado)
row,Binder,pKd
1,B1,below the threshold
2,B2,below the threshold
3,B3,below the threshold

# Molecular target: T3, DFNB31_3, Q9P202
# Experiment: holdup assay
# Set-up: key: below the threshold = too weak to quantify, mostly under pKd 3.1 to 4
# Conditions: plain residues with an end cap or a label only (N-terminal biotin on a linker: ado-ado)
row,Binder,pKd
1,B1,below the threshold
2,B2,below the threshold
3,B3,3.93

# Molecular target: GOPC, Q9HD26
# Experiment: holdup assay
# Set-up: key: below the threshold = too weak to quantify, mostly under pKd 3.1 to 4
# Conditions: plain residues with an end cap or a label only (N-terminal biotin on a linker: ado-ado)
row,Binder,pKd
1,B1,below the threshold
2,B2,below the threshold
3,B3,below the threshold

# Molecular target: GRID2IP_2, A4D2P6
# Sequence (A4D2P6 272-370): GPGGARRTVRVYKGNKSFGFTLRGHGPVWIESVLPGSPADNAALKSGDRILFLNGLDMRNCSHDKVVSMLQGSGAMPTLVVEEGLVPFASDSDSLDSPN
# Experiment: holdup assay
# Set-up: key: below the threshold = too weak to quantify, mostly under pKd 3.1 to 4
# Conditions: plain residues with an end cap or a label only (N-terminal biotin on a linker: ado-ado)
row,Binder,pKd
1,B1,4.16
2,B2,below the threshold
3,B3,below the threshold

# Molecular target: HTRA2, O43464
# Sequence (O43464 355-458): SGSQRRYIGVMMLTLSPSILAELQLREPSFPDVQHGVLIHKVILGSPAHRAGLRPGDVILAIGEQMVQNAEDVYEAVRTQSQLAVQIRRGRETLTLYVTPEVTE
# Experiment: holdup assay
# Set-up: key: below the threshold = too weak to quantify, mostly under pKd 3.1 to 4
# Conditions: plain residues with an end cap or a label only (N-terminal biotin on a linker: ado-ado)
row,Binder,pKd
1,B1,below the threshold
2,B2,below the threshold
3,B3,3.78

# Molecular target: MAST1, Q9Y2H9
# Sequence (Q9Y2H9 962-1065): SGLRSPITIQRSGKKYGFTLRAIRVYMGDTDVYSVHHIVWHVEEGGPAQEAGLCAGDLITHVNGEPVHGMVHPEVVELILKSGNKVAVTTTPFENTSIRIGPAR
# Experiment: holdup assay
# Set-up: key: below the threshold = too weak to quantify, mostly under pKd 3.1 to 4
# Conditions: plain residues with an end cap or a label only (N-terminal biotin on a linker: ado-ado)
row,Binder,pKd
1,B1,3.94
2,B2,below the threshold
3,B3,3.56

# Molecular target: T4, NHERF3_4, Q5T2W1
# Experiment: holdup assay
# Set-up: key: below the threshold = too weak to quantify, mostly under pKd 3.1 to 4
# Conditions: plain residues with an end cap or a label only (N-terminal biotin on a linker: ado-ado)
row,Binder,pKd
1,B1,below the threshold
2,B2,below the threshold
3,B3,3.51

# Molecular target: T5, NHERF3_1, Q5T2W1
# Experiment: holdup assay
# Set-up: key: below the threshold = too weak to quantify, mostly under pKd 3.1 to 4
# Conditions: plain residues with an end cap or a label only (N-terminal biotin on a linker: ado-ado)
row,Binder,pKd
1,B1,3.64
2,B2,below the threshold
3,B3,4.16

# Molecular target: DLG1_2, Q12959
# Experiment: holdup assay
# Set-up: key: below the threshold = too weak to quantify, mostly under pKd 3.1 to 4
# Conditions: plain residues with an end cap or a label only (N-terminal biotin on a linker: ado-ado)
row,Binder,pKd
1,B1,below the threshold
2,B2,below the threshold
3,B3,below the threshold

# Molecular target: T6, PDZD2_2, O15018
# Experiment: holdup assay
# Set-up: key: below the threshold = too weak to quantify, mostly under pKd 3.1 to 4
# Conditions: plain residues with an end cap or a label only (N-terminal biotin on a linker: ado-ado)
row,Binder,pKd
1,B1,4.76
2,B2,3.99
3,B3,3.72

# Molecular target: T7, SNTA1, Q13424
# Experiment: holdup assay
# Set-up: key: below the threshold = too weak to quantify, mostly under pKd 3.1 to 4
# Conditions: plain residues with an end cap or a label only (N-terminal biotin on a linker: ado-ado)
row,Binder,pKd
1,B1,below the threshold
2,B2,below the threshold
3,B3,below the threshold

# Molecular target: MAGI2_2, Q86UL8
# Sequence (Q86UL8 410-522): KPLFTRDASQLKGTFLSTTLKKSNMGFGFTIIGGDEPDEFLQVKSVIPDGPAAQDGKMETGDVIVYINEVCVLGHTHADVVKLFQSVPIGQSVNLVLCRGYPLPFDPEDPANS
# Experiment: holdup assay
# Set-up: key: below the threshold = too weak to quantify, mostly under pKd 3.1 to 4
# Conditions: plain residues with an end cap or a label only (N-terminal biotin on a linker: ado-ado)
row,Binder,pKd
1,B1,below the threshold
2,B2,below the threshold
3,B3,3.72

# Molecular target: T8, MPP6, Q9NZW5
# Experiment: holdup assay
# Set-up: key: below the threshold = too weak to quantify, mostly under pKd 3.1 to 4
# Conditions: plain residues with an end cap or a label only (N-terminal biotin on a linker: ado-ado)
row,Binder,pKd
1,B1,below the threshold
2,B2,below the threshold
3,B3,below the threshold

# Molecular target: NHERF2_2, Q15599
# Sequence (Q15599 142-238): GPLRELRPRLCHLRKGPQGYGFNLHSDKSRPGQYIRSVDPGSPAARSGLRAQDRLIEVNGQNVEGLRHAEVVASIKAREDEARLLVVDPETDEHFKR
# Experiment: holdup assay
# Set-up: key: below the threshold = too weak to quantify, mostly under pKd 3.1 to 4
# Conditions: plain residues with an end cap or a label only (N-terminal biotin on a linker: ado-ado)
row,Binder,pKd
1,B1,3.66
2,B2,below the threshold
3,B3,below the threshold

# Molecular target: GRASP, Q7Z6J2
# Sequence (Q7Z6J2 96-193): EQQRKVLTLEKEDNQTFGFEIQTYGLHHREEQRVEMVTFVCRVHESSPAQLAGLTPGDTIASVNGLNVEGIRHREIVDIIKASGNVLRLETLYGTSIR
# Experiment: holdup assay
# Set-up: key: below the threshold = too weak to quantify, mostly under pKd 3.1 to 4
# Conditions: plain residues with an end cap or a label only (N-terminal biotin on a linker: ado-ado)
row,Binder,pKd
1,B1,below the threshold
2,B2,below the threshold
3,B3,3.56

# Molecular target: FRMPD3, Q5JV73
# Sequence (Q5JV73 12-100): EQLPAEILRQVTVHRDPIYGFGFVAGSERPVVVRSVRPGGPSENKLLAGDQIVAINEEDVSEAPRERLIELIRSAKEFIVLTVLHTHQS
# Experiment: holdup assay
# Set-up: key: below the threshold = too weak to quantify, mostly under pKd 3.1 to 4
# Conditions: plain residues with an end cap or a label only (N-terminal biotin on a linker: ado-ado)
row,Binder,pKd
1,B1,below the threshold
2,B2,below the threshold
3,B3,below the threshold

# Molecular target: DLG1_3, Q12959
# Experiment: holdup assay
# Set-up: key: below the threshold = too weak to quantify, mostly under pKd 3.1 to 4
# Conditions: plain residues with an end cap or a label only (N-terminal biotin on a linker: ado-ado)
row,Binder,pKd
1,B1,below the threshold
2,B2,below the threshold
3,B3,below the threshold

# Molecular target: DLG1_1, Q12959
# Experiment: holdup assay
# Set-up: key: below the threshold = too weak to quantify, mostly under pKd 3.1 to 4
# Conditions: plain residues with an end cap or a label only (N-terminal biotin on a linker: ado-ado)
row,Binder,pKd
1,B1,below the threshold
2,B2,below the threshold
3,B3,below the threshold

# Molecular target: GRIP2_6, Q9C0E4
# Sequence (Q9C0E4 648-740): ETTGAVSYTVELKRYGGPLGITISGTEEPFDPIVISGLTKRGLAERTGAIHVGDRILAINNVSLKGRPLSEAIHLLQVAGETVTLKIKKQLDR
# Experiment: holdup assay
# Set-up: key: below the threshold = too weak to quantify, mostly under pKd 3.1 to 4
# Conditions: plain residues with an end cap or a label only (N-terminal biotin on a linker: ado-ado)
row,Binder,pKd
1,B1,below the threshold
2,B2,below the threshold
3,B3,4.35

# Molecular target: T9, PCLO, Q9Y6V0
# Experiment: holdup assay
# Set-up: key: below the threshold = too weak to quantify, mostly under pKd 3.1 to 4
# Conditions: plain residues with an end cap or a label only (N-terminal biotin on a linker: ado-ado)
row,Binder,pKd
1,B1,below the threshold
2,B2,below the threshold
3,B3,below the threshold

# Molecular target: T10, SIPA1L2, Q9P2F8
# Experiment: holdup assay
# Set-up: key: below the threshold = too weak to quantify, mostly under pKd 3.1 to 4
# Conditions: plain residues with an end cap or a label only (N-terminal biotin on a linker: ado-ado)
row,Binder,pKd
1,B1,below the threshold
2,B2,below the threshold
3,B3,below the threshold

# Molecular target: T11, MPDZ_5, O75970
# Experiment: holdup assay
# Set-up: key: below the threshold = too weak to quantify, mostly under pKd 3.1 to 4
# Conditions: plain residues with an end cap or a label only (N-terminal biotin on a linker: ado-ado)
row,Binder,pKd
1,B1,below the threshold
2,B2,below the threshold
3,B3,below the threshold

# Molecular target: FRMPD2_3, Q68DX3
# Sequence (Q68DX3 1073-1166): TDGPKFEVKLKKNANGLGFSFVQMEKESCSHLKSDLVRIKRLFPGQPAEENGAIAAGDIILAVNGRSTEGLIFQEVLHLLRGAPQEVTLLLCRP
# Experiment: holdup assay
# Set-up: key: below the threshold = too weak to quantify, mostly under pKd 3.1 to 4
# Conditions: plain residues with an end cap or a label only (N-terminal biotin on a linker: ado-ado)
row,Binder,pKd
1,B1,below the threshold
2,B2,below the threshold
3,B3,below the threshold
